In the nanobody polyreactivity screen of Harvey et al. (2022):

Assay: yeast display, Sf9 membrane polyspecificity reagent, FACS + sequencing; frameworks hold sequencing errors
Procedure, shortened: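 Nanobodies came from a synthetic yeast display library in Saccharomyces cerevisiae BJ5465, induced with galactose for 36–48 hours and stained for 1 hour at 4 °C with 10% biotinylated, detergent-solubilized Sf9 membrane reagent. Cells were enriched on streptavidin microbeads and then FACS-sorted, with low and high (top ~1%) gates set on anti-HA fluorescence for expression and streptavidin fluorescence for reagent binding. Each polyreactivity label reflects the gate a clone came from. Genes were amplified by colony PCR, sequenced by MiSeq 2 × 250 and filtered by CDR length.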

Sequence	polyreactivity (PSR sort gate)
QVQLVESGGGLVQAGGSLRLSCAASGSILRIYAMGWYSQAPGKEMELVARITWSGGRTYYADSVKGRFTISRDNAKNTVYLQMNSLKPEDTAVYDCNADLQRWGWEYDYWGQGTQVTVSS	high polyreactivity
QVQLVESGGGLVQAGGSLRLSCAASGSILRLYAMGWYRQAPGNERDLVAAITYRGGRTDYADSVKGRFTISRDTAKNTVYLQLNSLKPEDTAVFYCAAGYLPSPRYSTSYLYYYWGQGTQVTVSS	high polyreactivity
QVQLVESGGGLVQAGGSLRLSCAASGSILRYNAMGWYSQARAKEREWVASISRGGGTNYAYSVKGRFTISRDNAKNTVYLQINSLKQEDTAVYYCAALTLRVDYDSQWYSLVDYWGQGTEVTVSS	low polyreactivity
QVQLVESGGGLVQAGGSLRLSCAASGSILSKNAMGWYRQAPGKERELVAAITWSGGSTYYADSVKGRFTISRDNAKNTVYLQMNSLKPEDTAVYYCAADLDWSPHFGLPYDYWGQGTQVTVSS	low polyreactivity
QVQLVESGGGLVQAGGSLRLSCAASGSILSTNDMGWYRQAPGKERELVAGISSGGSTNYADSVKGRFTISRDNAKNTVYLQMNSQKPEDTAVYYCATDVDKDPAEMDYWGQGTQVTVSS	low polyreactivity
QVQLVESGGGLVQAGGSLRLSCAASGSILSTYAKGWYRQAPGKERELVASISSNAGSTYYADSVKGRFTISRDNAKNTVYLQMNSLKPEDTAVYYCNKVYGGGTYDYWGQGTQVTVSS	low polyreactivity
QVQLVESGGGLVQAGGSLRLSCAASGSILSTYAMGWYRQAPGKERELVASISSNAGSTYYADSVKGRFTISRDNAKNTVYLQMNSLKPEDTAVYYCNKDGKYHRVLYDYWGQGTQVTVSS	low polyreactivity
QVQLVESGGGLVQAGGSLRLSCAASGSILSYYAMGWYRQAPGKERELVAAISKSGGRTYYADSVKGRFTISRDNAKNTVYLQMNSLKPEETAVYYCAAEIVVFYSEGQRNTFYYWGQGTQVTVSS	high polyreactivity
QVQLVESGGGLVQAGGSLRLSCAASGSILSYYAMGWYRQAPGKERELVAAISKTGGRTYYADSVKGRFTISRDNAKNTVYLQMNSLKPEDTAVYYCAAVDTIGRYDYWGQGTQVTVSS	high polyreactivity
QVQLVESGGGLVQAGGSLRLSCAASGSILTAYAMGWYRQAPGKERELVAASNFSGDNTYYADSEKGRFTISRDNAKNTVYLQMNSLKPEDTAVYYCNADGRYAYVWYDYWGQGTQVTVSS	low polyreactivity
QVQLVESGGGLVQAGGSLRLSCAASGSILVAYAMGWYRQAPGKERELVAAISSVGNTYYADSVKGRFTISRDNAKNTVYLQMNSLIPEDTAVYYCNAVYRVWYAEWSTVGSPHDYWGQGTQVTVSS	low polyreactivity
QVQLVESGGGLVQAGGSLRLSCAASGSILVAYAMGWYRQAPGKERELVAAITQGGGSTYYADSVKGRFTISRDNAKNTVYLQMNSLKPEDTAVYYCNVGANVYLLYFPSRGGVYDYGYWGKGTQVTVSS	low polyreactivity
QVQLVESGGGLVQAGGSLRLSCAASGSILVGNAMGWYRQAPGKERELVAAISKSGSSTHYADSVKGRFTISRDNAKNTVYLQMNSLKPEDTAVYYCNAVGRVYRAKYDYWGQGTQVTVSS	high polyreactivity
QVQLVESGGGLVQAGGSLRLSCAASGSILYFYAMGWYRQAPGKEREFVAAISRSGGSTRYADSVKGRFTISRDNAKNTVYLQMNSLKPEDTAVYYCAATSRSYNDYDYWGQGTQVTVSS	high polyreactivity
QVQLVESGGGLVQAGGSLRLSCAASGSILYGNAMGWYRQAPGKERELVAAITTSGGRTYYADSVKGRFTISRDNAKNTVYLQLTSLKPEDTAVYYCAAASPTPVNWSGRDYYYWGQGTQVTVSS	high polyreactivity
QVQLVESGGGLVQAGGSLRLSCAASGSILYINAMGWYRQAPGKERELVAAITYSGGSTYYADSVKGRFTISRDNAKNTVYLQMNSLKPEDTAVYYWAADAVVAGRYDGHDYWGQGTQVTVSS	low polyreactivity

Sequence	polyreactivity (PSR sort gate)
QVQLVESGGGLVQAGGSLRLSCAASGSILYRYAMGWYRQAPGKERELVAAITRSGGSTYYADSVKGRFTISRDNAKNTVYLQMNSLKPEDTAVYYCARQRKVSAHSIEMDYWGQGTQVTVSS	low polyreactivity
QVQLVESGGGLVQAGGSLRLSCAASGSILYRYAMGWYRQAPGKERELVAAITRSGGSTYYADSVKGRFTITRDNAKNTVYFQMNSLKPEDTAGYYCARQRKVSAHSIEMDYWGQGTQVTVSS	low polyreactivity
QVQLVESGGGLVQAGGSLRLSCAASGSILYTNAMGWYRQAPGKERELVAAITTSGASTYYADSVKGRFTISRDNAKNTVYLQMNSLKPEDTAVYYCAAPSRYRYYWGNYWGQGTQVTVSS	high polyreactivity
QVQLVESGGGLVQAGGSLRLSCAASGSILYVYAMGWYRQAPGKERELVAAISNRDGSTYYADSVKGRFTISRDNAKNTVYLQMNSLKPEDTAVYYCNADGYGDYSFLKYRFEYDYWGQGTQVTVSS	low polyreactivity
QVQLVESGGGLVQAGGSLRLSCAASGSILYVYAMGWYRQAPGKERELVAVITSGGSTNYADSVKGRFTISRDNAKNTVYLQMHSLKPEDSAVYHCAAYYDYDWKYAPSFDYGYWGQGTQVTVSS	low polyreactivity
QVQLVESGGGLVQAGGSLRLSCAASGSILYYYTMGWYRQAPGKERELVAAINTSGGITYYADSVKGRFTISRDNAKNTVYLQMNSLKPEDTAVYYCAAEGPEIKYYYWGQGTQVTVSL	low polyreactivity
QVQLVESGGGLVQAGGSLRLSCAASGSIMVRYAMGWYRQAPGKERELVAAITSGGSTYADSVKGRFTISRDNAKNTVYLQMNSLKPEDTAVYYCARDYFNREAFDYWGQGTQVTVSS	low polyreactivity
QVQLVESGGGLVQAGGSLRLSCAASGSIMYVYAMGWYRQAPGKERELVAVITSGGSTNYAESVKGRFTISRDNAKNTVFLQMNSLKPEDTAVYYCAADPYSVYGGDYWGQGTQVTVSS	low polyreactivity
QVQLVESGGGLVQAGGSLRLSCAASGSINELYAKGWYRQAPGKERELVASITWRGGSTYYADSVKGRFTISRDNAKNTVYLQMNSLKPEDTAVYDCAADVPTASGTYDYWGQGTQVTVSS	low polyreactivity
QVQLVESGGGLVQAGGSLRLSCAASGSINYYAMGWYRQAPGKERELVAAITGSGGSTYYADSVKGRFTISRDNAKNTVYLQMNSLITEDTSVYYCAARYGYIYGPYYYWGQGTQVTVST	high polyreactivity
QVQLVESGGGLVQAGGSLRLSCAASGSINYYAMGWYRQAPGKERELVAAITGSGGSTYYADSVKGRFTISRDNAKNTVYLQMNSLKPEDTAVYYCAARYGYIYGPYYYWGQGTQVTVSS	high polyreactivity
QVQLVESGGGLVQAGGSLRLSCAASGSIQVYYAMGWYRQAPGKERELVAAISSGGSTNYADSVKGRFTISRDNAKNTVYLQMNSLKPEDTAVYYCAKESGWVGAIHYDYWGQGTQVTVSS	low polyreactivity
QVQLVESGGGLVQAGGSLRLSCAASGSIRGYAMGWYRQAPGKERELVAAISWRGGSTYYADSVKGRFTISRDNAKNTVYLQMNSLKPEDTAVYYCAAADGIIESDYWGQGTQVTVSS	low polyreactivity
QVQLVESGGGLVQAGGSLRLSCAASGSIRYYVMGWYRQAPGKERELVAGINWSGGSTYYADSVKGRFTISRDNAKNTVYLQMNSLKPEDTAVYYCAARFVGVRDGYYYWGQGTQVTVSS	high polyreactivity
QVQLVESGGGLVQAGGSLRLSCAASGSISADYVMGWYRQAPGKDRELVAAISVSAGTTYYADSVKGRFTISRDNAKNTVYLQMNSLKPEDTAVYYCAATDSYYWLYYYGYSPGNDYWGQGTQVTVSS	low polyreactivity
